The record followed here is the RNAGym collection of RNA variant scans (doi:10.1073/pnas.2313332121).

Fewer inactive variants are shown than the library holds.

B1: TPR 5TU (parent)
chain: GGAUCUUCUCGAUCUAACAAAAAAGACAAAUCUGCCACAAAGCUUGAGAGCAUCUUCGGAUGCAGAGGCGGCAGCCUUCGGUGGCGCGAUAGCGCCAACGUUCUCAACUAUGACACGCAAAACGCGUGCUCCGUUGAAUGGAGUUUAUCAUG

In the series the parent is B1. As to the kind of experiment: polymerase ribozyme fitness, log enrichment relative to wild type (log ratio); higher = more active; in vitro selection for triplet polymerase activity. The essentials: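 Libraries of mutants in each subunit of a heterodimeric triplet polymerase ribozyme were generated by PCR and transcribed. In triplicate, each went through one in vitro selection round: annealing with biotinylated primer, partner subunit and triplets; frozen incubation at −7 °C; gel excision of extended constructs; streptavidin-bead capture; RT-PCR. Fitness, taken from Illumina sequencing of input and output libraries, is the logarithm of a genotype's enrichment over wild-type enrichment, averaged across replicates with inverse-variance weights. The logarithm is base 2, and genotypes needed ≥10 input reads and ≥1 read per output to be kept.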
As for C18A A20U C69A G88U C93G C99G U111A G124A G140C, the “polymerase ribozyme fitness (log ratio)” value was at most -4.2. To A17U C57G belongs -0.677; to C18G A120C, -1.21.

In the case of A17U U55A, the “polymerase ribozyme fitness (log ratio)” value is -1.08. As for C18G A24G C57U C93G G94C G117C, the “polymerase ribozyme fitness (log ratio)” value was at most -4.2. For C18G U31A A120G G128U A137G, the “polymerase ribozyme fitness (log ratio)” value is -4.17. A17G C57A A91G C95G A122U: the “polymerase ribozyme fitness (log ratio)” value was -4.04.

For the variant C18G U56G C85U, the “polymerase ribozyme fitness (log ratio)” value is -0.856. To A17U A29U A37C C75U G80U G92A C125U A142C belongs at most -4.2. The same measure for A17U C27G G58C C96A C116U: at most -4.2; for A17G G58A: 1.26.

C18G C95U: the “polymerase ribozyme fitness (log ratio)” value was 0.206. Regarding C18G A22G A23C C69A G86U, the “polymerase ribozyme fitness (log ratio)” value was at most -4.2. As for A17U A19G A22U C93A, the “polymerase ribozyme fitness (log ratio)” value is -4.01.

Turning to A17U G50C G68C C85G G94A A106U C123U U134A U135A, the “polymerase ribozyme fitness (log ratio)” value was at most -4.2.

For C18G A26C C54A G62A C76G C87A A97C A150U, the “polymerase ribozyme fitness (log ratio)” value was at most -4.2. To C18G C32U C43U A89C belongs at most -4.2; to C18G C32G C35U G86U C105G A115C, -4. To A17U C93A G94U A121U A150G belongs at most -4.2; to A17U G25C, -4.13; to C18A A26U G84A A138G, at most -4.2.

As to A17U C93U, the “polymerase ribozyme fitness (log ratio)” value was -1.07. A17G G84C: the “polymerase ribozyme fitness (log ratio)” value was -1.85. To C18A A19C G50U C75U A110U belongs at most -4.2. The same measure for A17U A20C C85U U102G C116G: -3.83; for A17U A28U C38U: at most -4.2; for A17U C38A U53A G74A C95U: at most -4.2. Regarding A17U C36G G67U C87G C95G C99A C103A, the “polymerase ribozyme fitness (log ratio)” value was at most -4.2. For A17U A52U C57U C96U A98U C103G A121C G140C, the “polymerase ribozyme fitness (log ratio)” value is at most -4.2. A17U A49G C85U C116A: the “polymerase ribozyme fitness (log ratio)” value is -0.0919. The same measure for C18G A49U A119G: -1.83; for A17G G83U U134A: -2.39; for A17U C35A C69G U78G G84A A91G C103A: at most -4.2. For A17U A60U, the “polymerase ribozyme fitness (log ratio)” value was -0.153.

On to A17U U31G C32A A150G, for which the “polymerase ribozyme fitness (log ratio)” value was at most -4.2. As for A17G G50U, the “polymerase ribozyme fitness (log ratio)” value is 0.372. To A17G G50C belongs -2.81. Consider C18G A20C C32A A40C U53A A91G, for which the “polymerase ribozyme fitness (log ratio)” value is at most -4.2. To A17G C57U C96U U127C C131A G133U U146C belongs at most -4.2; to A17G C93G C95U, at most -4.2; to C18G A19C G88A G92U C95U U134A, -4.03.

A17U U55G G68U G84A C103A G152A: the “polymerase ribozyme fitness (log ratio)” value is at most -4.2. To A17U A39C A60C G86C C87A belongs at most -4.2. In the case of C18G U53A C57U G59C U61A C95G, the “polymerase ribozyme fitness (log ratio)” value is -3.99. In the case of C18G A24C G34A C57A C85U A89U A97G A120G A121U, the “polymerase ribozyme fitness (log ratio)” value was at most -4.2.

For C18G U44G U55G G58C C93A, the “polymerase ribozyme fitness (log ratio)” value was at most -4.2. The same measure for A17U A19U C93G U111G: at most -4.2; for A17G U53A C79A G141C: at most -4.2. A17U G67C A91C C95U G100U A106U: the “polymerase ribozyme fitness (log ratio)” value was at most -4.2. The same measure for A17U C54A U90G C96A C118G: at most -4.2; for A17G G58C U61G G71U G86C U104G G143C: at most -4.2.

Take C18A A23G A28C C43U A52C U146A: the “polymerase ribozyme fitness (log ratio)” value is at most -4.2.

Take C18G A60C G84U C125U: the “polymerase ribozyme fitness (log ratio)” value is -3.76. As to C18U A39G U53C, the “polymerase ribozyme fitness (log ratio)” value was -3.19.

Regarding A17G U44A A91G, the “polymerase ribozyme fitness (log ratio)” value was at most -4.2. To A17U U104A A106U G141C belongs at most -4.2; to A17U A19G C36U G42C G50A A73U A147C, at most -4.2; to C18A A20C U82C A122C, -1.71. To C18G A29C C35A A89U G128A U144G belongs at most -4.2. To A17U A19C C87G A89U belongs at most -4.2. Consider C18G A24U U55A C69U G74A, for which the “polymerase ribozyme fitness (log ratio)” value was -2.16. Take C18A U33A U56A G88A C114U U130A: the “polymerase ribozyme fitness (log ratio)” value was at most -4.2. The same measure for C18U A39C C57U G83A C95U U148C C149A: at most -4.2. To C18G C85U U101C belongs -0.76; to C18G A40U, 0.0147; to C18U A37C G68A A107U C125A G140C, at most -4.2.

As to A17G G50A U55G A89U C93A, the “polymerase ribozyme fitness (log ratio)” value is at most -4.2. Consider A17U A22U A26G G34U C57U G59A C93U, for which the “polymerase ribozyme fitness (log ratio)” value is at most -4.2. To C18U A40C C57A G126U belongs -0.291; to C18G A19U A23C G67C G126A G143U U144C, at most -4.2.

Take C18G C93U G143U: the “polymerase ribozyme fitness (log ratio)” value is -3.08.

On to C18G C38A C93U C105U A113C, for which the “polymerase ribozyme fitness (log ratio)” value is -4.17. Take C18G C32G A66U A89G C95G A107U: the “polymerase ribozyme fitness (log ratio)” value is at most -4.2. The same measure for C18A U31G G84C A89U: -2.91. To A17U U101G belongs 0.484; to A17U A28C C87A, at most -4.2.

On to A17U C54A G92U C149U, for which the “polymerase ribozyme fitness (log ratio)” value is -2.92. To A17G G59A G143C belongs -1.26; to A17U G92U U101G U127G U148A, -4.01; to A17U A24U C36A G59A U77G G83A A98U C105U C116G, at most -4.2. On to A17G C63A C118G A142U, for which the “polymerase ribozyme fitness (log ratio)” value was -2.32.

A17U C18A C54U U55G C75U C95A: the “polymerase ribozyme fitness (log ratio)” value is -1.89. The same measure for C18A A21U A52G C54U G92A C103A: at most -4.2; for A17G G92A A120G A122G C125A: at most -4.2.
